Data from paper PMC7820495 (2021).

Biological target: T1, GST-SVIP (Drosophila SVIP, CG32039) (Drosophila, UniProt Q8IQC6 1-82)
T1 chain: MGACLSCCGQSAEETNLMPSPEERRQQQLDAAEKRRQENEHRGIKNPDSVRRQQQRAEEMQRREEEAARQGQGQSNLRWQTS

B1: MBP-VCP^N-D1 (Drosophila VCP, N-terminal and first D1 ATPase domain) (domain or fragment)
chain: MADSKGEDLATAILKRKDRPNRLIVEEAQNDDNSVVSLSQAKMDELQLFRGDTVILKGKRRKETVCIVLSDDTCPDEKIRMNRVVRNNLCVHLSDVVSVQSCPDVKYGKRVRILPIDESTEGVTGNLFEIYLKPYFLEAYRPIHMGDNFIVRAAMRPIEFKVVLTDPEPYCIVAPETVIFCDGDPIKREEEEESLNAVGYDDIGGCRKQLAQIKEMVELPLRHPSLFKAIGVKPPRGILMYGPPGTGKTLIARAVANETGAFFFLINGPEIMSKLAGESESNLRKAFEEAEKNSPAIIFIDEIDAIAPKRDKTHGEVERRIVSQLLTLMDGMKKSSHLIVMAATNRPNSIDPALRRFGRFDREIDIGIPDATGRLEVLRIHTKNMKLHDDVDLEQIAAESHGHVGADLASLCSEAALQQIREKMDLIDLEDDKIDAEVLASLAVTMENFRYAMTKSSPSALRETVVEVPNTTWTDIGGLESVKKELQELVQYPVEHPDKFLKFGMQPSRGVLFYGPPGCGKTLLAKAIANECQANFISVKGPELLTMWFGESEANVRDIFDKARSAAPCVLFFDELDSIAKARGGNVGDAGGAADRVINQILTEMDGMGAKKNVFIIGATNRPDIIDPAILRPGRLDQLIYIPLPDDKSREAILKANLRKSPLAKEVDLTYIAKVTQGFSGADLTEICQRACKLAIRQAIEAEIRREKERAENQNSAMDMDEDDPVPEITSAHFEEAMKFARRSVSDNDIRKYEMFAQTLQQSRGFGQNFRFPGQTGNTSGSGNNLPVNSPGDNGDDDLYS
- Kd: 700 nM
